# Experimental data: article PMC12173559, “The Functional DPP4 Receptor Is an Indispensable Factor Mediating the Immune Performance of Mucosal Vaccines for Middle East Respiratory Syndrome” (Transboundary and Emerging Diseases, 2025)
# T1: MERS-CoV receptor binding domain (RBD), biotinylated (MERS-CoV, UniProt K9N5Q8)
# T1 construct: also called MERS-CoV RBD; MERS-CoV spike RBD
# T1 sequence: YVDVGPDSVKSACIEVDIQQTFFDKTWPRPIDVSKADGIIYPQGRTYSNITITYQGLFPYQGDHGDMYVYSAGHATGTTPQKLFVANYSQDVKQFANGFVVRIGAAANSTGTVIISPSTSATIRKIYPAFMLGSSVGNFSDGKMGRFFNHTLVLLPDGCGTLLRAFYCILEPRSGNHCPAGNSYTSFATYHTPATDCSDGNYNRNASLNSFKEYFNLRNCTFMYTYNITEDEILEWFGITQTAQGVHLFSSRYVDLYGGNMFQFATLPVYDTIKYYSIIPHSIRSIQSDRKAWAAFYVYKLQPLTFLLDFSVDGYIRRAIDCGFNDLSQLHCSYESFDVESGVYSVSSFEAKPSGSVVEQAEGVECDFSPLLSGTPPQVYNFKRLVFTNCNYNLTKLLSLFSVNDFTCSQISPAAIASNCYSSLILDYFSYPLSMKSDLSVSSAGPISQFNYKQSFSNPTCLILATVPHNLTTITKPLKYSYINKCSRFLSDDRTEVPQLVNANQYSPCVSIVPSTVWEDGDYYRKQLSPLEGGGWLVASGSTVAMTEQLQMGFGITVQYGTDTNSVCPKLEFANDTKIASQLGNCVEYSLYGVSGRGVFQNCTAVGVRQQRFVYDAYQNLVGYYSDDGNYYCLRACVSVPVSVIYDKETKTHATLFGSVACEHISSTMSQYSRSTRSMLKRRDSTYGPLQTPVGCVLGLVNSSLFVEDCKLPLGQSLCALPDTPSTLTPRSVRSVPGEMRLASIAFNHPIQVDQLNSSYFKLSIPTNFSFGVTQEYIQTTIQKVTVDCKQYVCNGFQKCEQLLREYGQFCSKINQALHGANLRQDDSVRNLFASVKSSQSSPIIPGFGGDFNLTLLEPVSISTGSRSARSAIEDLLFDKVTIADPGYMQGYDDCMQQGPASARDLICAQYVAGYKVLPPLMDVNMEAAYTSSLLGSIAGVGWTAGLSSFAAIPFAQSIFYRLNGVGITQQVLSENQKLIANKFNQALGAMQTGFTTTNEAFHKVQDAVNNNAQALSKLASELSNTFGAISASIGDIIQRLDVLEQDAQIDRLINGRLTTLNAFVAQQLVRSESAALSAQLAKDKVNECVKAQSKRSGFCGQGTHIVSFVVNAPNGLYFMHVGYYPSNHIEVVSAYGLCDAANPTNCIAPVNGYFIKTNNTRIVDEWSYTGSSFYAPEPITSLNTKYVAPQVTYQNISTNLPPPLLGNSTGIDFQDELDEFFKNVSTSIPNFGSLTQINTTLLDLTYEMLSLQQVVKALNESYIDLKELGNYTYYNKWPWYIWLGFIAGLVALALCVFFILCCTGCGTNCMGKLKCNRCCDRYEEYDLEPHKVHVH
# B1: human DPP4 (receptor)
# chain: SRKTYTLTDYLKNTYRLKLYSLRWISDHEYLYKQENNILVFNAEYGNSSVFLENSTFDEFGHSINDYSISPDGQFILLEYNYVKQWRHSYTASYDIYDLNKRQLITEERIPNNTQWVTWSPVGHKLAYVWNNDIYVKIEPNLPSYRITWTGKEDIIYNGITDWVYEEEVFSAYSALWWSPNGTFLAYAQFNDTEVPLIEYSFYSDESLQYPKTVRVPYPKAGAVNPTVKFFVVNTDSLSSVTNATSIQITAPASMLIGDHYLCDVTWATQERISLQWLRRIQNYSVMDICDYDESSGRWNCLVARQHIEMSTTGWVGRFRPSEPHFTLDGNSFYKIISNEEGYRHICYFQIDKKDCTFITKGTWEVIGIEALTSDYLYYISNEYKGMPGGRNLYKIQLSDYTKVTCLSCELNPERCQYYSVSFSKEAKYYQLRCSGPGLPLYTLHSSVNDKGLRVLEDNSALDKMLQNVQMPSKKLDFIILNETKFWYQMILPPHFDKSKKYPLLLDVYAGPCSQKADTVFRLNWATYLASTENIIVASFDGRGSGYQGDKIMHAINRRLGTFEVEDQIEAARQFSKMGFVDNKRIAIWGWSYGGYVTSMVLGSGSGVFKCGIAVAPVSRWEYYDSVYTERYMGLPTPEDNLDHYRNSTVMSRAENFKQVEYLLIHGTADDNVHFQQSAQISKALVDVGVDFQAMWYTDEDHGIASSTAHQHIYTHMSHFIKQCFSLP
# Target: T1, MERS-CoV receptor binding domain (RBD), …
# Test: BLI; […] (10 µg/mL) […] (SA) biosensor for 300 s; analyte in kinetic buffer (PBST, 0.1% BSA) […], association 120 s, dissociation 180 s; […]
# Conditions: both partners purified
binder,measurement,value
B1,Kd,55.1 nM
